Target: T1, recombinant human ErbB2/Fc chimera (human, UniProt P04626 23-652)
T1 construct: bought from R&D Systems; also called rhErbB2-Fc; rhErb2-Fc; Fc part of the bought chimera not given; not described
Assay: ELISA, coated ErbB2/Fc

Row | binding result | Binder
1 | binds | 13D10 (VHH, C-term myc-His6 tag) VHH: EVQLVESGGGLVQPGGSLRLSCAASSVITLDSNAIGWFRQAPGKEREEVSCIASSDGSTYYAESVKGRFTISKDYTRNTVYLQVNSLKPEDTAVYHCATDANPNCGLNVWNSWGQGTQVTVSS
2 | binds | 15E10 (VHH, C-term myc-His6 tag) VHH: EVQLVESGGGLVQAGGSLKLSCVASGITFFRYTMGWYRQAPGKERELVAEISSADEPSFADAVKGRFTISRDNAKNTVVLQMNGLKPEDTAVYYCKGSWSYPGLTYWGKGTLVTVSS
3 | binds | 13C4 (VHH, C-term myc-His6 tag) VHH: EVQLVESGGGLVQAGGSLRLSCVVSGIPSSIRAMAWYRQAPGRQRDWVATIYSPSGSAVYADSVKGRFTISSDNAKSTIYLQMNSLKPDDTAVYYCRDVNREYWGQGTQVTVSS
4 | binds | 15B11 (VHH, C-term myc-His6 tag) VHH: EVQLVESGGGSVQAGGSLRLSCVVSGIPSSIRAMAWYRQAPGRQRDWVATIYSRSGGAVYADSVKGRFTISSDNAKNTIYLQMNSLKPDDTAVYYCRDVNRDYWGQGTQVTVSS
5 | binds | 15B2 (VHH, C-term myc-His6 tag) VHH: EVQLVESGGGLVQAGGSLRLSCVVSGIPSSIRAMAWYRQAPGRQRDWVATIYSPSGSAVYADSVKGRFTISSDNAKSTIYLQMNSLKPDDTAVYYCRDVNRDYWGQGTQVTVSS
6 | binds | 13D4 (VHH, C-term myc-His6 tag) VHH: EVQLVESGGGLVQAGGSLRLSCVVSGIPSSIRAMAWYRQAPGRQRDWVATIYSPSGSAVYADSVKGRFTISSDNAKSTIYLQMNSLEPDDTAVYYCRDVNREYWGQGTQVTVSS
7 | binds | 15G5 (VHH, C-term myc-His6 tag) VHH: EVQLVESGGGLVQAGGSLRLSCVVSGIPSTIRAMAWYRQAPGRQRDWVATIYSPSGSAVYADSVKGRFTISSDNAKKTIYLQMNSLKPDDTAVYYCRDVNREYWGQGTQVTVSS
8 | binds | 17B5 (VHH, C-term myc-His6 tag) VHH: EVQLVESGGGLVQTGGSLRLSCAASGSTFRTDMMGWYRQAPGKQREFVASITKFGSTNYADSVKGRFTISNDNAKDTVYLQMNSLKSEDTAVYYCRNFNRDLWGQGTQVTVSS
9 | binds | 17D5 (VHH, C-term myc-His6 tag) VHH: EVQLVESGGGLVQPGGSLRLSCAASGIIGTIRTMAWYRQAPGKQRDWVASIGTRGAPVYADSVNGRFTISRDGATNTVFLQMNNLKPEDTAVYYCRDVNRDYWGQGTQVTVSS
10 | binds | 46G1 (VHH, C-term myc-His6 tag) VHH: EVQLVESGGGLVQAGGSLRLSCAASGRTFSDDAMGWFRQAPGKERECVASLYLNGDYPYYADSVKGRFTISRDNAKNAVILQMNNLKTEDTAVYYCAAKPGWVARDPSQYNYWGQGTQVTVSS
11 | binds | 46E4 (VHH, C-term myc-His6 tag) VHH: EVQLVESGGGLVQAGGSLRLSCAASGRAFKDDAVGWFRQAPGKERECVASMYLDGDYPYYADSVKGRFTISRDNAKNAVILQMNNLKTEDTAVYYCAAKPGWVARDPSEYNYWGQGTQVTVSS
12 | binds | 14D4 (VHH, C-term myc-His6 tag) VHH: EVQLVESGGGLVQAGDSLRLSCAASGRALDTYVMGWFRQAPGDGREFVAHIFRSGITSYASSVKGRFTISRDNAKNTVYLQMASLKPEDTAAYYCAARPSDTTWSESSASWGQGTQVTVSS
13 | binds | 17A10 (VHH, C-term myc-His6 tag) VHH: EVQLVESGGGLVQAGGSLRLSCVASGIPSIRAIAWYRQAPGKQRDWVATSGTGYGATYDDSVKGRFTLSRDNAKNTVYLQMNSLKPEDTAVYYCRDVNRDYWGQGTQVTVSS
14 | binds | 17C6 (VHH, C-term myc-His6 tag) VHH: EVQLVESGGGLVQAGGSLTLSCAASGSTSSLDIMAWYRQAPEKQRELVASVSGGGNSDYASSVKGRFTISGDTAKSTLYLQMNSLKPEDTAMYYCYGRDYYYMPFWGQGTQVTVSS
15 | binds | 15C9 (VHH, C-term myc-His6 tag) VHH: EVQLVESGGGLVQAGGSLKLSCVNSGIPSTLRAMAWYRQAPGRQRDWVATSSNTGGTTYDDSVKGRFTISRDNAKNTVYLQMNSLKPEDTGVYYCRDVNRDLWGQGTQVTVSS
16 | binds | 27F2 (VHH, C-term myc-His6 tag) VHH: EVQLVESGGGLVQAGGSLRLSCAASGIISSFRTLAWYRQAPGKQRDWVATISSAGGTAYADAVKGRFTISISRDNVEYTVDLQMDSLKPEDTAVYYCRDINGDYWGQGTQVTVSS
17 | binds | 27E7 (VHH, C-term myc-His6 tag) VHH: EVQLVESGGGLVQAGGSLRLSCAASGITFRRYDMGWYRQFPGKERELVATILSEGDTNYVDPVKGRFTISRDNAKNTVYLQMNDLKPEDTAVYYCNGVWRAIGRTYWGQGTQVTVSS

Row | binding result | Binder
18 | binds | 17B7 (VHH, C-term myc-His6 tag) VHH: EVQLVESGGGLVQAGGSLRLSCAASGIISSFRTMAWYRQAPGKQRDWVATIGSDGLANYADSVKGRFTISRDNAKKTVYLQMNSLKPEDTAVYFCRDINRDYWGQGTQVTVSS
19 | binds | 15B6 (VHH, C-term myc-His6 tag) VHH: EVQLVESGGGLVQPGGSLRLSCAASGIIGSFRTMAWYRQAPGNQRDWVATIGSAGLASYADSVRGRFTLSRDNAKKTVYLQMNSLKPEDTAIYYCRDINGDYWGQGTQVTVSS
20 | binds | 47E5 (VHH, C-term myc-His6 tag) VHH: EVQLVESGGGLVQAGGSLRLSCAASASIFGFDSMGWYRQAPGNERILVAIISNGGTTSYRDSVKGRFTIARDNAKNTVSLQMNSLKPEDTAVYYCNLDRRSYNGRQYWGQGTQVTVSS
21 | binds | 17A5 (VHH, C-term myc-His6 tag) VHH: EVQLVESGGGLVQPGGSLRLSCAASGFTFDDYSMSWVRQATGKGLEWVSGISWNGGSTNYADSVKGRFTISRDNVKNTLYLQMNSLKSEDTAVYYCAKDLGNSGRGPYTNWGQGTQVTVSS
22 | binds | 15G10 (VHH, C-term myc-His6 tag) VHH: EVQLVESGGGLVQAGGSLSLSCAASGRFFSTRVMAWYRQTPGKQREFVASMRGSGSTNYADSARGRFAISRDNAKNTVYLQMNSLKPEDTAVYYCRDINEDQWGQGTQVTVSS
23 | binds | 27A3 (VHH, C-term myc-His6 tag) VHH: EVQLVESGGGLVQAGGSLSLSCVASGRFFSTRVMAWYRQTPGKQREFVASMRGSGSTNYADSVRGRFAISRDNAKNTVYLQMNTLKPEDTAVYYCRDINEDQWGQGTQVTVSS
24 | binds | 17H10 (VHH, C-term myc-His6 tag) VHH: EVQLVESGGGLVQAGGSLSLSCSASGRFFSTRVMAWYRQTPGNQREFVATIHSSGSTIYADSVRGRFAISRDNAKNTVYLQMRSLKPEDTAVYYCRDINADQWGQGTQVTVSS
25 | binds | 17A8 (VHH, C-term myc-His6 tag) VHH: EVQLVESGGGLVQAGGSLSLSCAASGRFFSTRVMAWYRQTPGKQREFVASMRGSGSTNYADSVRGRFAISRDNAKNMVYLQMNTLKPEDTAVYYCRDINEDQWGQGTQVTVSS
26 | binds | 15A2 (VHH, C-term myc-His6 tag) VHH: EVQLVESGGGLAQAGGSLSLSCAASGRFFSTRVMAWYRQTPGKQREFVASMRGSGSTNYADSARGRFAISRDNAKNTVYLQMNSLKPEDTAVYYCRDINEDQWGQGTQVTVSS
27 | binds | 15C8 (VHH, C-term myc-His6 tag) VHH: EVQLVESGGGLVQAGGSLRLSCAASGIAFRIRTMAWYRQAPGKQRDWVATSDSGGTTLYADSVKGRFTVSRDNAENTVYLQMNSLKPEDTAVYYCRDVNRDYWGQGTQVTVSS
28 | binds | 27B5 (VHH, C-term myc-His6 tag) VHH: EVQLVESGGGLVQAGGSLRLPCAASGIAFRIRTMAWYRQAPGKQRDWVATSDSGGTTLYADSVKGRFTVSRDNAENTVYLQMNSLKPEDTAVYYCRDVNRDYWGQGTQVTVSS
29 | binds | 13B12 (VHH, C-term myc-His6 tag) VHH: EVQLVESGGGLVQAGGSLRLSCAASGIAFRIRTMAWYRQAPGKQRDWVATIGSDGTTIYADSVKGRFTLSRHNAENTVYLQMNSLKPEDTAVYYCRDVNRDYWGQGTQVTVSS
30 | binds | 27C7 (VHH, C-term myc-His6 tag) VHH: EVQLVESGGGLVQAGGSLRLSCAASGIAFRIRTMAWYRQAPGKQRDWVATSDSGGTTLYADSVKGRFTVSRDNADNTVYLQMNSLKPEDTAVYYCRDVNRDYWGQGTQVTVSS
31 | binds | 15D2 (VHH, C-term myc-His6 tag) VHH: EVQLVESGGGLVQAGGSLRLSCVVSGVFGPIRAMAWYRQAPGKQRDWVATIGSSGHPVYTDSVKGRFTFSKDGAKNTVYLQMNSLKPEDTAVYYCRDINRDYWGQGTQVTVSS
32 | binds | 13C9 (VHH, C-term myc-His6 tag) VHH: EVQLVESGGGLVQAGGSLRLSCVASGIPSIHAMAWYRQAPGKQRDWGATTYSRGGTTYNDSAKGRFTISRDNAKKTVYLQMNSLKPEDTAVYYCRDVNRDYWGQGTQVTVSS
33 | binds | 30D10 (VHH, C-term myc-His6 tag) VHH: EVQLVESGGGLVQAGGSLTLSCTASETTVRIRTMAWYRQPPGNQREWVATIGSNGFATYPDSVKGRFTISRDNAKNTVYLQMNSLKPEDTAVYYCRDINRDIWGQGSQVTVSS
34 | binds | 15H4 (VHH, C-term myc-His6 tag) VHH: EVQLVESGGGLVQAGGSLTLSCAPSESTVSFNTVAWYRQAPGEQREWVATISRQGMSTYPDSVKGRFTISRDNAKNTVYLQMNNLKPEDTAVYYCRDINHDIWGRGSQVTVSS
